Data: patent US20130090249A1 (CENTRE NATIONAL DE LA RECHERCHE SCIENTIFIQUE CNRS, published 2013)

Experiments:
[1] = target: T1, DN-Lingo-1-HA (human, UniProt Q96FE5 42-577); assay: BRET competition in live HEK-293 cells; the competitor may take the place of either the RLuc or the YFP partner
T1 construct: Residues 1-577 are counted on the 620-amino-acid human Lingo-1 (NP-116197); Expressed in HEK-293 cells; also called DN-HA; HA-tagged dominant negative of Lingo-1
T1 sequence: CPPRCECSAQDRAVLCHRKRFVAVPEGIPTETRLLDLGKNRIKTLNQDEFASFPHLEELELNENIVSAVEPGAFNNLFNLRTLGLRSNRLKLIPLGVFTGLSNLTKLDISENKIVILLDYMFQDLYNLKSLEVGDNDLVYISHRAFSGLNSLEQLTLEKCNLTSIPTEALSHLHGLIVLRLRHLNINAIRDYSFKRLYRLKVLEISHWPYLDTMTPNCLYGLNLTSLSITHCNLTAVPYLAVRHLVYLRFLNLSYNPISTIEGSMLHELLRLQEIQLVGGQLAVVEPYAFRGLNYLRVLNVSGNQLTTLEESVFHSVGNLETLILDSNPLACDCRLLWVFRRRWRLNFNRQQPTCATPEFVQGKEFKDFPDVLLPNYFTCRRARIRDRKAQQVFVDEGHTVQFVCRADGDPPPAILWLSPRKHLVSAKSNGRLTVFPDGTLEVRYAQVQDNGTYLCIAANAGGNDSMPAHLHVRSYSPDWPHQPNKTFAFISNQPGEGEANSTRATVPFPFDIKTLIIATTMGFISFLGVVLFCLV
Method: (§1) HEK-293 cells were transfected with the Lingo-1-RLuc and Lingo-1-YFP fusion proteins (the donor/acceptor ratio remains constant) and increasing concentrations of the whole Lingo-1 protein (Lingo-1-HA, amino acids 1-620) or the dominant negative thereof (DN-HA, amino acids 1-577) tagged with HA. The BRET measurement was carried out 48 hours after the transfection on live cells.
(§2) The BRET signal obtained between the Lingo-1-RLuc and Lingo-1-YFP proteins is therefore specific and can be modulated. […] In addition, when increasing concentrations of HA-tagged Lingo-1 protein were added (Lingo-1-HA at 0, 200, 400, 800, 1600 and 2600 ng), the BRET signal decreased (FIG. 5b); thereby making it possible to plot inhibition curves.

[2] = target: T2, Lingo-1-HA (human, UniProt Q96FE5 42-620); assay: as above
T2 construct: also called Lingo-HA; HA-tagged whole Lingo-1 protein
T2 sequence: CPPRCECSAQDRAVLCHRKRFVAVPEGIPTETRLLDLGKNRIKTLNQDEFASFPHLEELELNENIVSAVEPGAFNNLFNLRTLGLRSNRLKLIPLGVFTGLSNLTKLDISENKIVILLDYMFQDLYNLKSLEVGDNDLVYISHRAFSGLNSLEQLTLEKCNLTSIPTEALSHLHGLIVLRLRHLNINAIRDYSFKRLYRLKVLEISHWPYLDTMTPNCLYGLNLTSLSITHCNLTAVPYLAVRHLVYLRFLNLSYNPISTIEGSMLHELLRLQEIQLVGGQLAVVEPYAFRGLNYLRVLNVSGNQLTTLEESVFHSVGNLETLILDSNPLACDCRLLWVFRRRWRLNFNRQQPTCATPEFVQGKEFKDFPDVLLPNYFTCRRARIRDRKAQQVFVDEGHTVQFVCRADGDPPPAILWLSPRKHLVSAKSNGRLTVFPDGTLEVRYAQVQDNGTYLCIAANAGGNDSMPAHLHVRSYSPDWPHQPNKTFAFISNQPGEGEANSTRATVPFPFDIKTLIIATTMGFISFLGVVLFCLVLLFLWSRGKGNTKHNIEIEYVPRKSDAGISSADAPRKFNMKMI
Method: as §1, §2

binding result [1]: binds
binding result [2]: binds
B1: Lingo-1-RLuc (other)
chain: CPPRCECSAQDRAVLCHRKRFVAVPEGIPTETRLLDLGKNRIKTLNQDEFASFPHLEELELNENIVSAVEPGAFNNLFNLRTLGLRSNRLKLIPLGVFTGLSNLTKLDISENKIVILLDYMFQDLYNLKSLEVGDNDLVYISHRAFSGLNSLEQLTLEKCNLTSIPTEALSHLHGLIVLRLRHLNINAIRDYSFKRLYRLKVLEISHWPYLDTMTPNCLYGLNLTSLSITHCNLTAVPYLAVRHLVYLRFLNLSYNPISTIEGSMLHELLRLQEIQLVGGQLAVVEPYAFRGLNYLRVLNVSGNQLTTLEESVFHSVGNLETLILDSNPLACDCRLLWVFRRRWRLNFNRQQPTCATPEFVQGKEFKDFPDVLLPNYFTCRRARIRDRKAQQVFVDEGHTVQFVCRADGDPPPAILWLSPRKHLVSAKSNGRLTVFPDGTLEVRYAQVQDNGTYLCIAANAGGNDSMPAHLHVRSYSPDWPHQPNKTFAFISNQPGEGEANSTRATVPFPFDIKTLIIATTMGFISFLGVVLFCLVLLFLWSRGKGNTKHNIEIEYVPRKSDAGISSADAPRKFNMKMISRDPPVATMTSKVYDPEQRKRMITGPQWWARCKQMNVLDSFINYYDSEKHAENAVIFLHGNAASSYLWRHVVPHIEPVARCIIPDLIGMGKSGKSGNGSYRLLDHYKYLTAWFELLNLPKKIIFVGHDWGACLAFHYSYEHQDKIKAIVHAESVVDVIESWDEWPDIEEDIALIKSEEGEKMVLENNFFVETMLPSKIMRKLEPEEFAAYLEPFKEKGEVRRPTLSWPREIPLVKGGKPDVVQIVRNYNAYLRASDDLPKMFIESDPGFFSNAIVEGAKKFPNTEFVKVKGLHFSQEDAPDEMGKYIKSFVERVLKNEQ
notes: also called hLingo-1-RLuc
